The MegaScale stability set (Tsuboyama et al. 2023)

B1: EEHEE_rd4_0763 (parent)
chain: LTVHVGNVTYHFDNPEQAEEWAKRMAKKYQGQIHVKDGQFRIE

Variants of: B1
Assay: folding stability dG (cDNA display proteolysis); higher = more stable
Details: PBS, room temperature

Folding stability dG [kcal/mol] of substitutions, site by site:
K36: Q 1.79 | P 0.849 | L 1.7 | S 1.69 | A 1.49 | T 1.73 | Y 1.7 | N 1.49 | H 1.75 | M 1.67 | W 1.65 | V 2.24 | D 1.51 | E 1.84 | C 2.46 | G 1.39 | F 1.79 | R 1.51 | I 2.15
A26: D 0.393 | K 0.73 | P 0.273 | Q 0.967 | G 0.842 | R 1.06 | L 1.25 | Y 1.15 | V 1.09 | W 1.28 | E 0.642 | F 1.3 | T 0.749 | M 1.28 | I 1.06 | H 0.862 | N 0.911 | S 1.14
K27: N 1.39 | L 1.75 | Y 1.51 | V 1.6 | H 1.53 | T 1.58 | G 1.13 | P 0.724 | M 1.74 | C 2.38 | D 1.44 | S 1.55 | Q 1.66 | R 1.75 | W 1.45 | A 1.83 | E 1.67 | I 1.76 | F 1.57
K28: F 1.67 | E 1.37 | M 1.5 | D 0.954 | H 1.53 | T 1.03 | W 1.6 | N 0.823 | Q 1.35 | G 0.692 | A 1.23 | V 1.43 | I 1.61 | C 2.59 | Y 1.72 | S 0.897 | L 1.83 | R 1.78 | P 0.519
Q30: R 1.79 | T 1.2 | S 1.66 | E 1.33 | A 1.64 | N 2.06 | W 1.31 | L 1.39 | H 2.02 | M 1.59 | G 2.24 | P 1.19 | D 1.52 | K 1.92 | V 1.23 | F 1.43 | I 1.18
Q39: P 0.884 | T 1.29 | R 1.09 | C 2.92 | K 1.23 | E 1.88 | F 1.17 | M 1.36 | V 1.57 | L 0.835 | N 1.66 | A 1.71 | I 1.52 | W 1.24 | D 1.63 | Y 1.37 | G 1.7 | H 1.76 | S 1.57
G38: S 0.873 | D 1.25 | L 1.18 | N 1.36 | W 0.872 | E 1.07 | A 0.755 | P 1.18 | Y 0.909 | T 0.621 | H 1.02 | Q 0.9 | K 0.828 | I 0.869 | M 0.911 | C 2.15 | R 0.874 | F 1.1 | V 0.809
D37: P 0.309 | R 0.615 | T 0.617 | N 1.43 | M 0.773 | I 0.903 | H 0.769 | W 0.774 | G 1.12 | S 0.634 | Q 0.814 | L 1.12 | E 1.23 | A 0.671 | Y 0.742 | C 2.15 | F 0.868 | K 0.884 | V 0.669
I42: S 1.06 | Y 1.12 | L 0.845 | P 1.14 | Q 0.913 | K 0.942 | V 1.58 | R 0.894 | H 1.12 | T 1.08 | M 0.632 | N 1.05 | F 1.02 | D 1.17 | A 1.02 | E 1.08 | W 1.32 | G 1.2
G31: N 1.02 | D 0.903 | T 1.52 | Q 1.25 | F 1.69 | P 0.572 | I 1.82 | H 1.46 | Y 1.37 | R 1.07 | W 1.86 | V 1.78 | K 1.24 | L 2.08 | S 1.47 | C 2.42 | M 2.06 | E 0.971 | A 1.86
H34: L 1.75 | V 2.26 | R 1.55 | S 1.83 | I 2.21 | D 1.26 | Y 1.79 | A 1.56 | K 1.6 | G 1 | T 2.03 | E 1.5 | N 1.52 | W 1.42 | Q 1.61 | M 1.69 | F 1.87 | P 0.852
R41: L 1.98 | M 1.94 | G 1.3 | V 2.45 | Y 3.29 | I 2.6 | P 1.21 | Q 1.66 | F 3.1 | W 3.13 | A 1.4 | D 1.34 | E 1.59 | H 2.48 | N 1.66 | C 2.95 | T 2.02 | K 1.38 | S 1.57
Q32: N 1.33 | F 1.53 | C 1.93 | T 1.99 | E 1.56 | S 1.62 | K 1.71 | R 1.64 | G 1.01 | H 1.81 | A 1.52 | Y 1.51 | L 1.48 | I 2.03 | D 1.27 | W 1.21 | V 2.02 | P 0.998 | M 1.49
E43: A 1.34 | F 1.69 | K 1.23 | N 1.06 | L 1.76 | D 1.44 | C 3.04 | I 2 | M 1.5 | H 1.44 | G 1.26
F40: N 1.14 | K 1.04 | A 1.06 | Y 1.78 | E 1.15 | Q 0.978 | I 2.25 | M 1.74 | H 1.02 | W 1.88 | R 1 | V 1.55 | T 1.2 | P 1.01 | D 1.03 | S 1.03 | G 0.985 | L 2.01
Y29: M 1.35 | V 1.27 | D 0.496 | R 0.723 | W 1.61 | Q 0.696 | K 0.706 | T 1.12 | L 1.68 | I 1.32 | E 0.616 | A 0.762 | N 0.767 | H 1.32 | S 0.788 | F 1.53 | C 2.16 | G 0.732 | P 0.306
I33: R 0.644 | T 0.877 | L 1.65 | Q 0.795 | W 1.34 | F 1.41 | V 1.59 | K 0.715 | C 2.07 | S 0.865 | E 0.735 | P 0.833 | A 1.03 | H 0.852 | G 0.819 | N 0.836 | D 0.877 | M 1.21 | Y 1.2
M25: R 0.567 | Y 1.45 | T 0.731 | V 1.23 | W 1.34 | S 0.407
V35: Y 2.19 | K 1.17 | G 0.956 | S 1.15 | Q 1.2 | N 1.18 | F 2.22 | T 1.18 | D 0.963 | E 1.21 | I 1.74 | H 1.21 | M 1.61 | L 1.62 | R 1.08 | W 1.81 | P 0.636 | A 0.96 | C 2.27
